Data taken from the supplement of paper PMC10567573.

B1: FUT8 (parent)
chain: YAHQPRTADEIPMEPGDIIGVAGN

Variants of: B1
Experiment: protein stability index of a GFP-peptide fusion (GPS, HEK-293T) (PSI 1-6); higher = more stable
Details: c terminus: a fixed tail appended
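Note: lentivirally expressed fusions sorted by FACS into six bins by GFP to DsRed ratio, PSI derived from sequencing read proportions per bin multiplied by bin number.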

For T7Q, which protein stability index is on record?
The protein stability index was 4.25.

Which protein stability index does the source give for T7L here?
Its protein stability index is 3.71.

For T7N, which protein stability index is on record?
Its protein stability index is 4.51.

For T7S, which protein stability index is on record?
The protein stability index was 4.12.

With T7D as the variant, how does the protein stability index read?
The protein stability index was 4.62.

For T7R, which protein stability index is on record?
The protein stability index was 3.9.

With T7M as the variant, how does the protein stability index read?
Its protein stability index is 3.68.

Which protein stability index does the source give for T7W here?
The protein stability index was 2.46.

For I11T, which protein stability index is on record?
The protein stability index was 4.2.

For I11F, which protein stability index is on record?
The protein stability index was 3.71.

For I11W, which protein stability index is on record?
Its protein stability index is 3.44.

For I11P, which protein stability index is on record?
The protein stability index was 4.12.

Which protein stability index does the source give for I11S here?
Its protein stability index is 4.09.

For I11Y, which protein stability index is on record?
The protein stability index was 3.93.

For I11A, which protein stability index is on record?
The protein stability index was 4.44.

With I11E as the variant, how does the protein stability index read?
The protein stability index was 4.37.

With G23T as the variant, how does the protein stability index read?
The protein stability index was 3.87.

For G23V, which protein stability index is on record?
Its protein stability index is 3.58.

Which protein stability index does the source give for G23I here?
Its protein stability index is 2.87.

With G23Q as the variant, how does the protein stability index read?
The protein stability index was 4.11.

Which protein stability index does the source give for G23L here?
The protein stability index was 3.27.

With G23E as the variant, how does the protein stability index read?
Its protein stability index is 4.83.

With G23D as the variant, how does the protein stability index read?
Its protein stability index is 4.24.

With G23A as the variant, how does the protein stability index read?
Its protein stability index is 3.96.

Which protein stability index does the source give for G23S here?
Its protein stability index is 3.77.

For G23F, which protein stability index is on record?
Its protein stability index is 2.99.

For E14R, which protein stability index is on record?
Its protein stability index is 3.48.

For E14K, which protein stability index is on record?
Its protein stability index is 3.29.

With E14Q as the variant, how does the protein stability index read?
The protein stability index was 3.47.

For A22M, which protein stability index is on record?
The protein stability index was 3.96.

Which protein stability index does the source give for A22W here?
Its protein stability index is 2.41.

For A22Y, which protein stability index is on record?
Its protein stability index is 3.27.

With A22R as the variant, how does the protein stability index read?
The protein stability index was 4.

Which protein stability index does the source give for A22K here?
The protein stability index was 4.4.

With A22I as the variant, how does the protein stability index read?
The protein stability index was 3.12.

Which protein stability index does the source give for A22T here?
The protein stability index was 3.87.

With A22Q as the variant, how does the protein stability index read?
Its protein stability index is 4.31.

With P12Y as the variant, how does the protein stability index read?
Its protein stability index is 3.21.

With P12F as the variant, how does the protein stability index read?
Its protein stability index is 3.27.

With Y1R as the variant, how does the protein stability index read?
The protein stability index was 4.84.

Which protein stability index does the source give for Y1Q here?
Its protein stability index is 5.12.

Which protein stability index does the source give for Y1L here?
Its protein stability index is 4.75.

Which protein stability index does the source give for Y1P here?
The protein stability index was 5.26.

Which protein stability index does the source give for Y1F here?
Its protein stability index is 3.6.

With Y1N as the variant, how does the protein stability index read?
The protein stability index was 4.75.

For A8G, which protein stability index is on record?
Its protein stability index is 4.19.

For A8W, which protein stability index is on record?
Its protein stability index is 2.78.

For A8K, which protein stability index is on record?
The protein stability index was 3.88.

For A8P, which protein stability index is on record?
The protein stability index was 4.32.

With A8I as the variant, how does the protein stability index read?
The protein stability index was 4.02.

Which protein stability index does the source give for A8N here?
The protein stability index was 4.22.

With A8T as the variant, how does the protein stability index read?
The protein stability index was 4.24.

Which protein stability index does the source give for A8V here?
The protein stability index was 3.77.

Which protein stability index does the source give for G16I here?
The protein stability index was 3.44.

For G16D, which protein stability index is on record?
The protein stability index was 4.61.

Which protein stability index does the source give for G16V here?
The protein stability index was 3.92.

Which protein stability index does the source give for G16N here?
The protein stability index was 4.16.

Which protein stability index does the source give for G16Y here?
Its protein stability index is 3.05.

For G16H, which protein stability index is on record?
Its protein stability index is 4.08.

Which protein stability index does the source give for P15T here?
The protein stability index was 4.25.

Which protein stability index does the source give for P15C here?
The protein stability index was 3.58.

Which protein stability index does the source give for P15H here?
The protein stability index was 3.86.

With P15I as the variant, how does the protein stability index read?
The protein stability index was 3.5.

Which protein stability index does the source give for P15Q here?
The protein stability index was 4.25.

Which protein stability index does the source give for P15K here?
The protein stability index was 4.16.

For P15L, which protein stability index is on record?
Its protein stability index is 3.2.

For N24M, which protein stability index is on record?
The protein stability index was 3.21.

With N24E as the variant, how does the protein stability index read?
The protein stability index was 4.59.

With N24V as the variant, how does the protein stability index read?
Its protein stability index is 3.61.

Which protein stability index does the source give for N24P here?
Its protein stability index is 3.18.

Which protein stability index does the source give for N24C here?
Its protein stability index is 3.57.

For G20K, which protein stability index is on record?
Its protein stability index is 4.34.

Which protein stability index does the source give for G20Q here?
Its protein stability index is 4.06.

For G20S, which protein stability index is on record?
Its protein stability index is 3.86.

Which protein stability index does the source give for G20T here?
The protein stability index was 4.37.

Which protein stability index does the source give for P5T here?
The protein stability index was 4.31.

Which protein stability index does the source give for P5W here?
Its protein stability index is 1.88.

Which protein stability index does the source give for P5K here?
The protein stability index was 3.61.

With P5L as the variant, how does the protein stability index read?
The protein stability index was 3.75.

For P5M, which protein stability index is on record?
Its protein stability index is 3.53.

For P5H, which protein stability index is on record?
The protein stability index was 3.85.

For P5Y, which protein stability index is on record?
Its protein stability index is 3.48.

Which protein stability index does the source give for P5N here?
The protein stability index was 4.33.

For I18L, which protein stability index is on record?
The protein stability index was 4.05.

Which protein stability index does the source give for I18H here?
Its protein stability index is 3.71.

For I18G, which protein stability index is on record?
Its protein stability index is 3.84.

With I18N as the variant, how does the protein stability index read?
The protein stability index was 4.03.

For I18S, which protein stability index is on record?
Its protein stability index is 3.79.

Which protein stability index does the source give for I18A here?
Its protein stability index is 3.83.

For Q4P, which protein stability index is on record?
Its protein stability index is 3.52.

For Q4M, which protein stability index is on record?
Its protein stability index is 3.73.

Which protein stability index does the source give for Q4T here?
The protein stability index was 3.72.

With Q4R as the variant, how does the protein stability index read?
The protein stability index was 3.06.

With D9R as the variant, how does the protein stability index read?
Its protein stability index is 3.41.

Which protein stability index does the source give for D9M here?
The protein stability index was 3.74.

With D9K as the variant, how does the protein stability index read?
Its protein stability index is 3.51.

With D9G as the variant, how does the protein stability index read?
Its protein stability index is 3.52.

For D9C, which protein stability index is on record?
Its protein stability index is 3.22.

With D9T as the variant, how does the protein stability index read?
The protein stability index was 3.57.

With M13L as the variant, how does the protein stability index read?
The protein stability index was 4.1.

Which protein stability index does the source give for M13A here?
Its protein stability index is 4.69.

For M13S, which protein stability index is on record?
The protein stability index was 4.07.

Which protein stability index does the source give for M13C here?
The protein stability index was 3.9.

For M13D, which protein stability index is on record?
The protein stability index was 4.82.

Which protein stability index does the source give for M13T here?
Its protein stability index is 4.34.

With M13V as the variant, how does the protein stability index read?
The protein stability index was 4.68.

For M13G, which protein stability index is on record?
Its protein stability index is 4.52.

For M13R, which protein stability index is on record?
The protein stability index was 4.43.

Which protein stability index does the source give for M13I here?
Its protein stability index is 3.87.

For M13F, which protein stability index is on record?
The protein stability index was 3.43.

For H3K, which protein stability index is on record?
Its protein stability index is 4.34.

For H3S, which protein stability index is on record?
The protein stability index was 4.36.

Which protein stability index does the source give for H3V here?
The protein stability index was 4.46.

Which protein stability index does the source give for H3L here?
Its protein stability index is 4.77.

Which protein stability index does the source give for H3Y here?
Its protein stability index is 3.45.

With H3G as the variant, how does the protein stability index read?
Its protein stability index is 3.36.

For H3R, which protein stability index is on record?
Its protein stability index is 3.44.

Which protein stability index does the source give for H3T here?
The protein stability index was 4.25.

For I19F, which protein stability index is on record?
The protein stability index was 3.78.

With I19M as the variant, how does the protein stability index read?
Its protein stability index is 4.54.

Which protein stability index does the source give for I19N here?
Its protein stability index is 4.72.

Which protein stability index does the source give for I19E here?
Its protein stability index is 5.21.

Which protein stability index does the source give for R6I here?
Its protein stability index is 4.12.

With R6G as the variant, how does the protein stability index read?
Its protein stability index is 4.65.

Which protein stability index does the source give for R6H here?
Its protein stability index is 4.25.

With R6K as the variant, how does the protein stability index read?
The protein stability index was 3.99.

With R6Q as the variant, how does the protein stability index read?
Its protein stability index is 4.47.

Which protein stability index does the source give for R6E here?
The protein stability index was 5.23.

For R6Y, which protein stability index is on record?
The protein stability index was 3.73.

For R6L, which protein stability index is on record?
The protein stability index was 4.2.

Which protein stability index does the source give for E10R here?
Its protein stability index is 2.96.

For E10K, which protein stability index is on record?
Its protein stability index is 2.9.

With E10C as the variant, how does the protein stability index read?
The protein stability index was 3.25.

Which protein stability index does the source give for E10T here?
Its protein stability index is 3.66.

With E10L as the variant, how does the protein stability index read?
The protein stability index was 3.56.

For E10Q, which protein stability index is on record?
The protein stability index was 3.08.

With E10W as the variant, how does the protein stability index read?
Its protein stability index is 2.23.

With E10Y as the variant, how does the protein stability index read?
The protein stability index was 3.06.

With E10D as the variant, how does the protein stability index read?
The protein stability index was 4.18.

Which protein stability index does the source give for E10N here?
Its protein stability index is 3.73.

Which protein stability index does the source give for E10P here?
Its protein stability index is 3.66.

Which protein stability index does the source give for A2R here?
The protein stability index was 4.56.

Which protein stability index does the source give for A2S here?
Its protein stability index is 4.53.

For A2I, which protein stability index is on record?
Its protein stability index is 3.15.

Which protein stability index does the source give for A2Q here?
Its protein stability index is 4.09.

For A2P, which protein stability index is on record?
Its protein stability index is 4.43.

With A2N as the variant, how does the protein stability index read?
Its protein stability index is 4.92.

With D17E as the variant, how does the protein stability index read?
Its protein stability index is 4.24.

Which protein stability index does the source give for D17G here?
The protein stability index was 3.38.

With D17H as the variant, how does the protein stability index read?
The protein stability index was 3.29.

For D17I, which protein stability index is on record?
Its protein stability index is 2.57.

Which protein stability index does the source give for D17K here?
Its protein stability index is 3.25.

With D17L as the variant, how does the protein stability index read?
Its protein stability index is 2.3.

Which protein stability index does the source give for D17S here?
The protein stability index was 3.78.

Which protein stability index does the source give for D17A here?
The protein stability index was 3.23.

Which protein stability index does the source give for D17N here?
The protein stability index was 3.48.

For D17C, which protein stability index is on record?
The protein stability index was 2.79.

Which protein stability index does the source give for D17Q here?
The protein stability index was 4.14.

Which protein stability index does the source give for V21H here?
The protein stability index was 4.15.

With V21T as the variant, how does the protein stability index read?
The protein stability index was 4.69.

With V21K as the variant, how does the protein stability index read?
Its protein stability index is 3.99.

For V21I, which protein stability index is on record?
Its protein stability index is 3.93.

For V21A, which protein stability index is on record?
Its protein stability index is 4.33.

For V21L, which protein stability index is on record?
Its protein stability index is 4.03.

Which protein stability index does the source give for V21D here?
The protein stability index was 4.62.

For V21N, which protein stability index is on record?
Its protein stability index is 4.28.

With V21R as the variant, how does the protein stability index read?
Its protein stability index is 3.47.
